From the supplement of paper PMC11811203

B1: THAP1; numbered along this chain (parent)
chain: MVQSCSAYGCKNRYDKDKPVSFHKFPLTRPSLCKEWEAAVRRKNFKPTKYSSICSEHFTPDCFKRECNNKLLKENAVPTIFLCTEPHDKKEDLLEPQEQLPPPPLPPPVSQVDAAIGLLMPPLQTPVNLSVFCDHNYTVEDTMHQRKRIHQLEQQVEKLRKKLKTAQQRCRRQERQLEKLKEVVHFQKEKDDVSERGYVILPNDYFEIVEVPA

Variants of: B1
Experiment: THAP1 transcriptional activity (GFP+/GFP- enrichment relative to wild-type constructs) (ratio to WT); higher = more THAP1 activity (PSMB5 reporter activation)
Settings: with PSMB5 promoter-GFP reporter
How it was run: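 A lentiviral site-saturation library covering residues 2–213 of human THAP1, with each position changed to all 20 amino acids, was transduced in duplicate at MOI ~0.3 into THAP1-knockout HEK-293T cells with mClover3 knocked in at endogenous PSMB5. Five days later, BFP+ cells were sorted into GFP-dim and GFP-bright bins and variants were counted by Illumina sequencing of genomic DNA amplicons. Activity is the bright/dim read fold change averaged over replicates and divided by the mean of wild-type synonymous constructs.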

THAP1 transcriptional activity of substitutions, site by site:
R160: W 0.309 | G 0.224 | Y 0.263 | M 0.278 | I 0.228 | H 0.433 | K 0.689 | A 0.391 | C 0.269 | F 0.252 | Q 0.492 | L 0.205 | P 0.171 | D 0.216 | V 0.339
Q151: N 0.636 | S 0.793 | P 0.303 | E 0.7 | L 0.804 | M 0.894 | R 1.12 | V 0.675 | T 0.796 | G 0.864 | I 0.817
V156: M 0.475 | K 0.343 | S 0.331 | Y 0.362 | A 0.555 | C 0.708 | P 0.0732 | W 0.284 | G 0.25 | I 0.548 | Q 0.225 | H 0.201 | L 0.731 | E 0.213 | T 0.468 | D 0.153 | R 0.349
K158: R 0.941 | P 0.175 | Q 0.708 | Y 0.666 | E 0.562 | G 0.542 | H 0.822 | W 0.457 | D 0.831 | I 0.55 | V 0.617 | M 0.607 | L 0.386 | F 0.365 | N 0.391
Q155: W 0.376 | I 0.473 | V 0.773 | M 0.674 | C 0.531 | S 0.563 | T 0.609 | D 0.521 | H 0.765 | R 0.65 | Y 0.71 | N 0.447 | K 0.749 | P 0.175
L159: M 0.541 | Q 0.261 | N 0.294 | T 0.209 | Y 0.707 | C 0.151 | W 0.164 | H 0.228 | D 0.213 | V 0.327 | F 0.337 | A 0.245 | G 0.147 | R 0.193 | P 0.158 | E 0.147
Q154: D 0.962 | I 0.779 | V 0.661 | G 0.732 | M 1.17 | E 0.776 | A 1.06 | S 1.24 | W 0.539 | R 0.653 | L 0.867
K161: V 0.461 | T 0.505 | F 0.232 | D 0.188 | P 0.172 | M 0.518 | W 0.242 | C 0.37 | N 0.475 | Y 0.195 | L 0.441 | S 0.639 | E 0.167 | A 0.3 | I 0.452 | R 0.649 | H 0.451 | G 0.289
E153: K 0.513 | Q 0.585 | M 0.461 | G 0.412 | N 0.512 | V 0.395 | T 0.774 | Y 0.404 | I 0.393 | W 0.268 | S 0.631 | R 0.491 | C 0.315
K162: F 0.177 | D 0.27 | A 0.4 | C 0.329 | E 0.269
L152: C 0.209 | S 0.211 | W 0.246 | H 0.215 | G 0.249 | E 0.227 | D 0.195 | N 0.287 | I 0.29 | A 0.28 | Q 0.191 | M 0.249 | R 0.306 | V 0.213 | P 0.177 | F 0.236 | K 0.189
E157: N 0.914 | M 1.03 | C 0.685 | S 1.39 | G 0.865 | A 1.14 | V 0.835 | L 0.434 | Q 0.766 | I 1.2 | W 0.741 | P 0.228 | D 0.766 | Y 0.488 | R 0.765
